Test results as given in paper PMC3887193.

Biological target: HLA-DRα (human)
Settings: scale: % of surface expression with wild type Ii

cell surface expression of DRA.DPB1*0401 co-expressed with Ii M91G (flow cytometry, mAb 2.06): 60
Substance: Ii M91G mutant (natural protein)
